Here are results for 8 sequences from the supplement of paper PMC11246515.

± gives the standard deviation of the averaged measurements.

A short description of this data set: total protein half-life in vivo (active degradation + dilution); higher = more stable protein.
[1] abbreviates: E. coli NCM3722 delta-clpP delta-lon delta-hslV, growth: N-lim chemostat, doubling time 6 h.
[2] abbreviates: E. coli NCM3722 delta-clpP, growth: N-lim chemostat, doubling time 6 h.
[3] abbreviates: E. coli NCM3722 delta-hslV, growth: N-lim chemostat, doubling time 6 h.
Where [4] appears, read: E. coli NCM3722 delta-lon, growth: N-lim chemostat, doubling time 6 h.
The mark [5] stands for this setting: E. coli NCM3722 delta-smpB, growth: N-lim chemostat, doubling time 6 h.
Setting [6] is: wild type E. coli NCM3722, growth: C-lim chemostat, doubling time 3 h.
Where [7] appears, read: wild type E. coli NCM3722, growth: C-lim chemostat, doubling time 6 h.
The mark [8] stands for this setting: wild type E. coli NCM3722, growth: N-lim chemostat, doubling time 6 h.
Setting [9] is: wild type E. coli NCM3722, growth: N-lim chemostat, doubling time 12 h.
Where [10] appears, read: wild type E. coli NCM3722, growth: P-lim chemostat, doubling time 6 h.
Where [11] appears, read: wild type E. coli NCM3722, growth: P-lim chemostat, doubling time 12 h.
Where [12] appears, read: wild type E. coli NCM3722, growth: C-lim chemostat, doubling time 12 h.

Take “MKKLAIAGALLLLAGCAEVENYNNVVKTPAPDWLAGYWQTKGPQRALVSPEAIGSLIVTKEGDTLDCRQWQRVIAVPGKLTLMSDDLTNVTVKRELYEVERDGNTIEYDGMTMERVDRPTAECAAALDKAPLPTPLP”: the “total protein half-life in vivo” value is, setting by setting: under setting [1], 7.04 ± 1.3 h; under setting [2], 6.08 ± 0.62 h; under setting [3], 6.36 ± 0.14 h; under setting [4], 7.26 ± 0.97 h; under setting [5], 6.12 ± 0.1 h; under setting [6], 3 ± 0.23 h. Moreover, the “total protein half-life in vivo” value under setting [7] is 6.16 ± 0.61 h; the “total protein half-life in vivo” value under setting [8] is 4.4 ± 3.5 h; the “total protein half-life in vivo” value under setting [9] worked out at 12.5 ± 0.86 h; the “total protein half-life in vivo” value under setting [10] came out at 6.19 ± 0.15 h; the “total protein half-life in vivo” value under setting [11] was determined as 12.4 ± 0.42 h.
In the case of “MKILLAALTSSFMLVGCTPRIEVAAPKEPITINMNVKIEHEIIIKADKDVEELLETRSDLF”, the “total protein half-life in vivo” value is 7.04 ± 0.68 h under setting [1]; 6.88 ± 0.2 h under setting [4]; 5.661 ± 0.018 h under setting [5]; 3.15 ± 0.11 h under setting [6]; 12 ± 1.4 h under setting [12]; 13.6 ± 1.1 h under setting [9]. Further, the “total protein half-life in vivo” value under setting [11] was 12.9 ± 0.47 h.
For the sequence “MKALSPIAVLISALLLQGCVAAAVVGTAAVGTKAATDPRSVGTQVDDGTLEVRVNSALSKDEQIKKEARINVTAYQGKVLLVGQSPNAELSARAKQIAMGVDGANEVYNEIRQGQPIGLGEASNDTWITTKVRSQLLTSDLVKSSNVKVTTENGEVFLMGLVTEREAKAAADIASRVSGVKRVTTAFTFIK”, the “total protein half-life in vivo” value stood at 5.42 ± 0.59 h under setting [1]; 6.43 ± 0.3 h under setting [3]; 6.34 ± 0.34 h under setting [4]; 5.71 ± 0.1 h under setting [5]; 3.05 ± 0.21 h under setting [6]; 5.72 ± 0.47 h under setting [7]. The “total protein half-life in vivo” value is, setting by setting: under setting [12], 10.5 ± 1.7 h; under setting [8], 5.86 ± 0.3 h; under setting [9], 11.9 ± 0.14 h; under setting [10], 5.78 ± 0.22 h; under setting [11], 12.3 ± 0.21 h.
In the case of “MKVDIDTSDKLYADAWLGFKGTDWKNEINVRDFIQHNYTPYEGDESFLAEATPATTELWEKVMEGIRIENATHAPVDFDTNIATTITAHDAGYINQPLEKIVGLQTDAPLKRALHPFGGINMIKSSFHAYGREMDSEFEYLFTDLRKTHNQGVFDVYSPDMLRCRKSGVLTGLPDGYGRGRIIGDYRRVALYGISYLVRERELQFADLQSRLEKGEDLEATIRLREELAEHRHALLQIQEMAAKYGFDISRPAQNAQEAVQWLYFAYLAAVKSQNGGAMSLGRTASFLDIYIERDFKAGVLNEQQAQELIDHFIMKIRMVRFLRTPEFDSLFSGDPIWATEVIGGMGLDGRTLVTKNSFRYLHTLHTMGPAPEPNLTILWSEELPIAFKKYAAQVSIVTSSLQYENDDLMRTDFNSDDYAIACCVSPMVIGKQMQFFGARANLAKTLLYAINGGVDEKLKIQVGPKTAPLMDDVLDYDKVMDSLDHFMDWLAVQYISALNIIHYMHDKYSYEASLMALHDRDVYRTMACGIAGLSVATDSLSAIKYARVKPIRDENGLAVDFEIDGEYPQYGNNDERVDSIACDLVERFMKKIKALPTYRNAVPTQSILTITSNVVYGQKTGNTPDGRRAGTPFAPGANPMHGRDRKGAVASLTSVAKLPFTYAKDGISYTFSIVPAALGKEDPVRKTNLVGLLDGYFHHEADVEGGQHLNVNVMNREMLLDAIEHPEKYPNLTIRVSGYAVRFNALTREQQQDVISRTFTQAL”, the “total protein half-life in vivo” value under setting [1] stood at 4.15 h; the “total protein half-life in vivo” value under setting [5] worked out at 1.87 ± 0.4 h; the “total protein half-life in vivo” value under setting [6] is 2.12 ± 0.2 h; the “total protein half-life in vivo” value under setting [7] came out at 2.56 ± 0.43 h; the “total protein half-life in vivo” value under setting [12] came out at 3.63 ± 1.1 h; the “total protein half-life in vivo” value under setting [8] came out at 1.88 h. For the same sequence, the “total protein half-life in vivo” value under setting [9] came to 3.13 h, the “total protein half-life in vivo” value under setting [10] was found to be 3.24 h and the “total protein half-life in vivo” value under setting [11] worked out at 6.82 ± 0.17 h.
Regarding “MQKNAAHTYAISSLLVLSLTGCAWIPSTPLVQGATSAQPVPGPTPVANGSIFQSAQPINYGYQPLFEDRRPRNIGDTLTIVLQENVSASKSSSANASRDGKTNFGFDTVPRYLQGLFGNARADVEASGGNTFNGKGGANASNTFSGTLTVTVDQVLVNGNLHVVGEKQIAINQGTEFIRFSGVVNPRTISGSNTVPSTQVADARIEYVGNGYINEAQNMGWLQRFFLNLSPM [P0A6S0]”, the “total protein half-life in vivo” value under setting [1] amounted to 4.87 ± 0.27 h; the “total protein half-life in vivo” value under setting [2] amounted to 5.09 ± 0.14 h; the “total protein half-life in vivo” value under setting [6] turned out to be 2.82 ± 0.29 h; the “total protein half-life in vivo” value under setting [7] was 4.64 ± 0.58 h; the “total protein half-life in vivo” value under setting [12] amounted to 7.92 ± 0.56 h; the “total protein half-life in vivo” value under setting [8] stood at 4.97 h. The “total protein half-life in vivo” value worked out at 9.12 h under setting [9], 5.6 h under setting [10] and 11.5 ± 0.65 h under setting [11].
“MTIAIVIGTHGWAAEQLLKTAEMLLGEQENVGWIDFVPGENAETLIEKYNAQLAKLDTTKGVLFLVDTWGGSPFNAASRIVVDKEHYEVIAGVNIPMLVETLMARDDDPSFDELVALAVETGREGVKALKAKPVEKAAPAPAAAAPKAAPTPAKPMGPNDYMVIGLARIDDRLIHGQVATRWTKETNVSRIIVVSDEVAADTVRKTLLTQVAPPGVTAHVVDVAKMIRVYNNPKYAGERVMLLFTNPTDVERLVEGGVKITSVNVGGMAFRQGKTQVNNAVSVDEKDIEAFKKLNARGIELEVRKVSTDPKLKMMDLISKIDK”: the “total protein half-life in vivo” value was found to be 6.3 ± 0.43 h under setting [1]; 6.46 ± 1.2 h under setting [2]; 6.12 ± 0.73 h under setting [4]; 5.94 ± 0.051 h under setting [5]; 3.14 ± 0.049 h under setting [6]; 6.91 ± 0.14 h under setting [7]. Besides, the “total protein half-life in vivo” value came to 13 ± 0.89 h under setting [12]; 5.95 ± 0.48 h under setting [8]; 12 ± 0.24 h under setting [9]; 6.111 ± 0.044 h under setting [10]; 14.3 ± 0.52 h under setting [11].
For the sequence “MRVITLAGSPRFPSRSSSLLEYAREKLNGLDVEVYHWNLQNFAPEDLLYARFDSPALKTFTEQLQQADGLIVATPVYKAAYSGALKTLLDLLPERALQGKVVLPLATGGTVAHLLAVDYALKPVLSALKAQEILHGVFADDSQVIDYHHRPQFTPNLQTRLDTALETFWQALHRRDVQVPDLLSLRGNAHA”, the “total protein half-life in vivo” value reads like this: under setting [1], 4.66 ± 0.17 h; under setting [4], 1.83 h.
For “MKGRWVKYLLMGTVVAMLAACSSKPTDRGQQYKDGKFTQPFSLVNQPDAVGAPINAGDFAEQINHIRNSSPRLYGNQSNVYNAVQEWLRAGGDTRNMRQFGIDAWQMEGADNYGNVQFTGYYTPVIQARHTRQGEFQYPIYRMPPKRGRLPSRAEIYAGALSDKYILAYSNSLMDNFIMDVQGSGYIDFGDGSPLNFFSYAGKNGHAYRSIGKVLIDRGEVKKEDMSMQAIRHWGETHSEAEVRELLEQNPSFVFFKPQSFAPVKGASAVPLVGRASVASDRSIIPPGTTLLAEVPLLDNNGKFNGQYELRLMVALDVGGAIKGQHFDIYQGIGPEAGHRAGWYNHYGRVWVLKTAPGAGNVFSG [P0A935]”, the “total protein half-life in vivo” value amounted to 5.19 ± 1.9 h under setting [1]; 4.22 ± 0.17 h under setting [2]; 3.87 ± 0.69 h under setting [3]; 4.05 ± 0.22 h under setting [4]; 3 ± 0.41 h under setting [5]; 1.877 ± 0.013 h under setting [6]. Moreover, the “total protein half-life in vivo” value is, setting by setting: under setting [7], 2.8 ± 0.13 h; under setting [12], 4.23 ± 0.38 h; under setting [8], 2.99 ± 0.4 h; under setting [9], 3.79 ± 0.35 h; under setting [10], 3.7 ± 0.37 h; under setting [11], 6.57 ± 0.27 h.
